Results: patent US20120065123A1 (published 2012)

How the values were obtained:
[1] = biological target: T1, Gal80 (UniProt P04387 1-435, limits assumed); assay: SPR with gal80 immobilised on the chip; Kd from on and off rates
T1 construct: Cy3/Cy5 or otherwise fluorescently labelled on arrays; immobilised in SPR and ELISA
T1 sequence (looked up): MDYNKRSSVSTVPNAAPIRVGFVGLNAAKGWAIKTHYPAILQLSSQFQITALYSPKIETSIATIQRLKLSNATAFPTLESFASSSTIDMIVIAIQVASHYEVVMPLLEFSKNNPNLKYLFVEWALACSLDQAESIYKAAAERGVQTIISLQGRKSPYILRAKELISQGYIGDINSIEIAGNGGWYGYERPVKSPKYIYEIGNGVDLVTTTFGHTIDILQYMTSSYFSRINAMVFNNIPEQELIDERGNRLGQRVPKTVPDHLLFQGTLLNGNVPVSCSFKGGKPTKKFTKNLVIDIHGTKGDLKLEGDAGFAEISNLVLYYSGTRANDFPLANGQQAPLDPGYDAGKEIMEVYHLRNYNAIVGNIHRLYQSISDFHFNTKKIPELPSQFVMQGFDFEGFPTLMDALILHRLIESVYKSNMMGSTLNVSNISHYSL

[2] = biological target: T2, pooled human transferrin (Sigma), biotinylated (human, UniProt P02787 20-698, biotinylated at amines with NHS-LC-LC-Biotin); assay: SPR (Biacore A-100), biotinylated transferrin captured on Neutravidin, unpurified peptide injected for 60 s [l]
T2 construct: Captured on Neutravidin on a CM5 chip (Biacore A-100)
Text: (§1) A Biacore A-100 Surface Plasmon Resonance (SPR) system was used to measure the binding response of each peptide to several different target proteins immobilized on a gold surface. The A-100 has four different flow cells and within each flow cell are five addressable spots. Therefore four different proteins and a negative control reference can be used per flow cell. Depending on the purpose of the assay, up to 16 different target proteins can be immobilized on a single SPR chip. The instrument is equipped to evaluate up to 10 384-well plates unattended and can process approximately four 384-well plates per day. Sensorgrams are collected from each immobilized protein, so a binding profile for each analyte versus each of the protein targets is generated for each injection. Target proteins were immobilized using a biotin capture approach in which a CM5 chip was activated using standard amine coupling chemistry and Neutravidin was covalently coupled to the chip. Each biotinylated protein was injected over a single spot and the amount of protein captured was measured.

[3] = biological target: T2, pooled human transferrin (Sigma), …; assay: SPR (Biacore A-100), biotinylated transferrin captured on Neutravidin, unpurified peptide injected for 60 s [j]
[4] = biological target: T2, pooled human transferrin (Sigma), …; assay: SPR (Biacore A-100), biotinylated transferrin captured on Neutravidin, unpurified peptide injected for 60 s [b]
[5] = biological target: T2, pooled human transferrin (Sigma), …; assay: SPR (Biacore A-100), biotinylated transferrin captured on Neutravidin, unpurified peptide injected for 60 s [i]
Text: as §1

[6] = biological target: T2, pooled human transferrin (Sigma), …; assay: SPR (Biacore A-100), biotinylated transferrin captured on Neutravidin, unpurified peptide injected for 60 s [d]
[7] = biological target: T1, Gal80; assay: light-directed peptide array, 25 pM labelled GAL80 with 1 mg/mL E. coli lysate; against template BP2
Procedure: Variant peptides in the array were designed to contain both invariable and variable positions. Invariable positions were coupled using standard Fmoc solid-phase synthesis protocols. Briefly, the Fmoc protecting group was removed with 20% piperidine in DMF for 20 minutes. After deprotection, the next Fmoc amino acid was coupled to the N-terminus of the peptide chain (0.1 M Fmoc amino acid, 0.1 M HATU, 0.4 M DIPEA in DMF). Amino acid coupling times were typically 60 minutes. Variable positions in the peptide were coupled using light-directed chemistry. First, the N-terminal Fmoc group was removed from all peptides using 20% piperidine in DMF and the photolabile protecting group MeNPOC—Cl was coupled to the liberated N-terminal amines for 30 minutes. The array was then immersed in photolysis solution containing 30% β-mercaptoethanol, 7% DIPEA in acetonitrile. A photolithographic mask was projected on the substrate using a Digital Mirror Device, to selectively remove the MeNPOC protecting group in the illuminated regions. The substituted FMOC amino acid was added and allowed to couple to the selectively deprotected regions. After coupling, photodeprotection was repeated for different regions on the array and the next amino acid was coupled. This photodeprotection/coupling cycle was repeated for all substituted amino acids at a particular position in the peptide. After all peptides on the array are grown to the desired length a final side-chain deprotection is done using 95% TFA, 2.5% TIPS, 2.5% H₂O for 1 hour.
The chemically diverse set of 10 amino acids {I, D, W, L, E, G, T, S, K, R} were selected as the amino acids to substitute into the four variable positions for a total of 10,000 unique variant peptides. Three replicates were included in the array to produce a total of 30,000 array features. The variant array (including the lead peptide) was synthesized using light-directed synthesis described above.

[8] = biological target: T2, pooled human transferrin (Sigma), …; assay: SPR (Biacore A-100), biotinylated transferrin captured on Neutravidin, unpurified peptide injected for 60 s [g]
[9] = biological target: T2, pooled human transferrin (Sigma), …; assay: SPR (Biacore A-100), biotinylated transferrin captured on Neutravidin, unpurified peptide injected for 60 s [c]
Text: as §1

[10] = biological target: T2, pooled human transferrin (Sigma), …; assay: SPR (Biacore A-100), biotinylated transferrin captured on Neutravidin, unpurified peptide injected for 60 s [f]
[11] = biological target: T2, pooled human transferrin (Sigma), …; assay: SPR (Biacore A-100), biotinylated transferrin captured on Neutravidin, unpurified peptide injected for 60 s [k]

T2 sequence (P02787 20-698 limits assumed): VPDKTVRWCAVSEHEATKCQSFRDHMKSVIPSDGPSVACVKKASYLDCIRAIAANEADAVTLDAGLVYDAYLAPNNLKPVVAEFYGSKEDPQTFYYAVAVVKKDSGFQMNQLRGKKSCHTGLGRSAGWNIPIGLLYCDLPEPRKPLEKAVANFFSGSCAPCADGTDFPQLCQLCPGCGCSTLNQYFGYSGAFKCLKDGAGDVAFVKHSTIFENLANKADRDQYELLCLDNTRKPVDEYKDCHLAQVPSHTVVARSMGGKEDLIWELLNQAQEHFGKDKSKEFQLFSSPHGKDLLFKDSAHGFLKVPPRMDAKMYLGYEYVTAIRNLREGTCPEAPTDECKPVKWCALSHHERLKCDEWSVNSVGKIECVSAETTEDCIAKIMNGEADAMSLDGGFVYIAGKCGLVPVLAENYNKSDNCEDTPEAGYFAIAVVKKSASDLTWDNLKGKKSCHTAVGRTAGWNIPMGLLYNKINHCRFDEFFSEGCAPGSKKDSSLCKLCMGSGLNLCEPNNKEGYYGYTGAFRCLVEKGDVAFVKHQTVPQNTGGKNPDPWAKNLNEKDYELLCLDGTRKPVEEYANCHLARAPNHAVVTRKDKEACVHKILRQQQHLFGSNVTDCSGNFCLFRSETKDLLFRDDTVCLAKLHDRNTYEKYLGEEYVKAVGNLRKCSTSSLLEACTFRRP

B1: BP2 on dsDNA (peptide)
peptide: EGEWTEGKLSLRGSC
modifications: chain 1 pos 15: Cys thiol joined via SMCC maleimide to an amine-modified cytosine of the double-stranded DNA linker, which the letters cannot carry
notes: also called BP2 alone conjugated to DNA linker
[1]
  Kd: 0.982 µM

B2: transferrin binding peptide of FIG. 60L (peptide)
peptide: TEDNDYMVVSMVVTMEPGSC
notes: Unpurified library peptide
[2]
  binding result: binds

B3: transferrin binding peptide of FIG. 60J (peptide)
peptide: DRDTPWETTNKTEEGIEGSC
notes: Unpurified library peptide
[3]
  binding result: binds

B4: transferrin binding peptide of FIG. 60B (peptide)
peptide: NIRMLLRFTVFPAQKLIGSC
notes: Unpurified library peptide
[4]
  binding result: binds

B5: transferrin binding peptide of FIG. 60I (peptide)
peptide: AMMRMDMAGLNKIVFHQGSC
notes: Unpurified library peptide
[5]
  binding result: binds

B6: transferrin binding peptide of FIG. 60D (peptide)
peptide: DFLWSKSGILSHASWNHGSC
notes: Unpurified library peptide
[6]
  binding result: binds

B7: BP2 variant EGEITEGKKSKLGSC (peptide)
peptide: EGEITEGKKSKLGSC
[7]
  Fold Enhancement: 11.1 fold

B8: BP2 variant EGEITEGKKSKTGSC (peptide)
peptide: EGEITEGKKSKTGSC
[7]
  Fold Enhancement: 10.6 fold

B9: BP2 variant EGEKTEGKKSKEGSC (peptide)
peptide: EGEKTEGKKSKEGSC
[7]
  Fold Enhancement: 9.7 fold

B10: BP2 variant EGEITEGKKSKEGSC (peptide)
peptide: EGEITEGKKSKEGSC
[7]
  Fold Enhancement: 10.9 fold

B11: BP2 variant EGEWTEGKKSKEGSC (peptide)
peptide: EGEWTEGKKSKEGSC
[7]
  Fold Enhancement: 10.7 fold

B12: BP2 variant EGEDTEGKKSKGGSC (peptide)
peptide: EGEDTEGKKSKGGSC
[7]
  Fold Enhancement: 10.8 fold

B13: BP2 variant EGEITEGKKSKIGSC (peptide)
peptide: EGEITEGKKSKIGSC
notes: Made in place on a glass slide by light-directed synthesis
[7]
  Fold Enhancement: 11.3 fold

B14: BP2 variant EGEDTEGKKSKTGSC (peptide)
peptide: EGEDTEGKKSKTGSC
[7]
  Fold Enhancement: 10.2 fold

B15: BP2 variant EGEWTEGKKSKTGSC (peptide)
peptide: EGEWTEGKKSKTGSC
[7]
  Fold Enhancement: 10.5 fold

B16: BP2 variant EGEWTEGKKSKLGSC (peptide)
peptide: EGEWTEGKKSKLGSC
[7]
  Fold Enhancement: 10.7 fold

B17: BP2 variant EGEWTEGKKSKGGSC (peptide)
peptide: EGEWTEGKKSKGGSC
[7]
  Fold Enhancement: 11.1 fold

B18: BP2 variant EGEDTEGKKSKEGSC (peptide)
peptide: EGEDTEGKKSKEGSC
[7]
  Fold Enhancement: 10.1 fold

B19: BP2 variant EGEDTEGKKSKIGSC (peptide)
peptide: EGEDTEGKKSKIGSC
[7]
  Fold Enhancement: 10.4 fold

B20: BP2 variant EGEDTEGKKSKRGSC (peptide)
peptide: EGEDTEGKKSKRGSC
[7]
  Fold Enhancement: 10.4 fold

B21: BP2 variant EGEWTEGKKSKRGSC (peptide)
peptide: EGEWTEGKKSKRGSC
[7]
  Fold Enhancement: 11 fold

B22: BP2 variant EGEKTEGKKSKGGSC (peptide)
peptide: EGEKTEGKKSKGGSC
[7]
  Fold Enhancement: 9.24 fold

B23: BP2 variant EGEITEGKKSKRGSC (peptide)
peptide: EGEITEGKKSKRGSC
[7]
  Fold Enhancement: 10.5 fold

B24: BP2 variant EGEKTEGKKSKLGSC (peptide)
peptide: EGEKTEGKKSKLGSC
[7]
  Fold Enhancement: 9.81 fold

B25: BP2 variant EGEWTEGKKSKIGSC (peptide)
peptide: EGEWTEGKKSKIGSC
[7]
  Fold Enhancement: 10.4 fold

B26: BP2 variant EGEITEGKKSKGGSC (peptide)
peptide: EGEITEGKKSKGGSC
[7]
  Fold Enhancement: 10.8 fold

B27: BP2 variant EGEKTEGKKSKTGSC (peptide)
peptide: EGEKTEGKKSKTGSC
[7]
  Fold Enhancement: 8.5 fold

B28: BP2 variant EGEITEGKKSKSGSC (peptide)
peptide: EGEITEGKKSKSGSC
[7]
  Fold Enhancement: 9.91 fold

B29: BP2 variant EGEDTEGKKSKLGSC (peptide)
peptide: EGEDTEGKKSKLGSC
[7]
  Fold Enhancement: 10.4 fold

B30: BP1 on dsDNA (peptide)
peptide: GTEKGTSGWLKTGSC
modifications: chain 1 pos 15: Cys thiol joined via SMCC maleimide to an amine-modified cytosine of the double-stranded DNA linker, which the letters cannot carry
notes: also called BP1 alone conjugated to DNA linker
[1]
  Kd: 0.482 µM

B31: BP2 variant EGEITEGKGSKKGSC (peptide)
peptide: EGEITEGKGSKKGSC
[7]
  Fold Enhancement: 9.87 fold

B32: BP2 variant EGEITEGKLSKKGSC (peptide)
peptide: EGEITEGKLSKKGSC
[7]
  Fold Enhancement: 9.72 fold

B33: transferrin binding peptide of FIG. 60G (peptide)
peptide: DNSRRSAKQRIFMHVDLGSC
notes: Unpurified library peptide
[8]
  binding result: binds

B34: transferrin binding peptide of FIG. 60C (peptide)
peptide: WMDDIDAPQDEWWVFHHGSC
notes: Unpurified library peptide
[9]
  binding result: binds

B35: transferrin binding peptide of FIG. 60F (peptide)
peptide: KMRTITYYHLQAILKQRGSC
notes: Unpurified library peptide
[10]
  binding result: binds

B36: transferrin binding peptide of FIG. 60K (peptide)
peptide: QENDQQSFGLGGMMGQAGSC
notes: Unpurified library peptide
[11]
  binding result: binds
